Three molecules from article PMC5630700 (2017) can be followed below.

For one experiment, the target named is mbp-NP600 fusion protein (Marburg virus Musoke, UniProt P27588 601-695). The experiment is described as follows: ELISA. Background: ELISA stands for enzyme-linked immunosorbent assay.
In experiment [1] the target is purified recombinant MARV (Marburg Musoke) nucleoprotein polymer (Marburg virus Musoke, UniProt P27588 1-695). Description: ELISA.
Chain of purified recombinant MARV (Marburg Musoke) nucleoprotein polymer (P27588 whole entry): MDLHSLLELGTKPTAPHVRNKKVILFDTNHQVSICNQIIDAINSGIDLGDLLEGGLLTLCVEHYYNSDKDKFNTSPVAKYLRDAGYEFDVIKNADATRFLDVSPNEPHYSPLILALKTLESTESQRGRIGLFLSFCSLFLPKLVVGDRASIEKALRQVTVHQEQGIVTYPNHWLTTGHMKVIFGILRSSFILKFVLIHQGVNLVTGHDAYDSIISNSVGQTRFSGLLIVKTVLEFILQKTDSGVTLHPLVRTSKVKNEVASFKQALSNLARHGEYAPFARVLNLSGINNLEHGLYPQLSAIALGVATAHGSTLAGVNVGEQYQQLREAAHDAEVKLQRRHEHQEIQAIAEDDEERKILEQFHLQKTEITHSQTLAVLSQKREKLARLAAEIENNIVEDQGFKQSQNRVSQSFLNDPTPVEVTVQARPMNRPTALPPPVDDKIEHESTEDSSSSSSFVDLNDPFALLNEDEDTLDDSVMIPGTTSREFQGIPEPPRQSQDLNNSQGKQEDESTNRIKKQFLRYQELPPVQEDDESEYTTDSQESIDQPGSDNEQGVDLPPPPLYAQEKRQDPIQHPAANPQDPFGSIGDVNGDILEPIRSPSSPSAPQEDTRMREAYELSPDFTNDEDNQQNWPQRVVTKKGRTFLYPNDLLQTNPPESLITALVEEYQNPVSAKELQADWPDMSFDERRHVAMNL

Chain of mbp-NP600 fusion protein (P27588 601-695): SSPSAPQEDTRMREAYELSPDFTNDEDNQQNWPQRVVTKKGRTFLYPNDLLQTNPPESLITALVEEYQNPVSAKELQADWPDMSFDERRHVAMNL

B1: sdAb C–Gaussia luciferase fusion (glucibody, pecan35) (VHH)
VHH: KVQLQESGGGLVQVGGSLRLSCKASGFTFRSSAMGWYRRAPGKQRELVASLTTTGTADYGDFVKGRFTISRDNAENTVDLHMNSLKPEDTAVYYCHEDPYGMESLRYWGQGTQVTVSS
For the molecule B1, the EC50 is 11.9 nM with mbp-NP600 fusion protein and 4.1 nM in experiment [1].

B2: sdAb A–Gaussia luciferase fusion (glucibody, pecan35) (VHH)
VHH: EVKLQESGGGLVQAGESLRLSCAVPPEVFDIRTVAWYRQVPLGKGRELLSSITPWNKTTYEDSVKDRFTISRDNAKYTVYLQMNDLKPEDTAVYYCAQGWGIASMRYWGQGTQVTVSS
For B2, the EC50 with mbp-NP600 fusion protein was determined as 14.1 nM; in experiment [1], 2.8 nM.

B3: sdAb B–Gaussia luciferase fusion (glucibody, pecan35) (VHH)
VHH: KVQLQESGGGLVQAGGSLRLSCAASGGTFSINTLGWYRRAPGKEREFVARISSGGITRYADSVKGRFTISRDNGKNTVYLDMNSLKPEDTAVYYCMYRNWGGGLDVYWGQGTQVTVSS
As for B3, the EC50 in the experiment with mbp-NP600 fusion protein stood at 162 nM; in experiment [1], 10.8 nM.

Usually EC50 stands for the concentration that produces a half-maximal response.
